Data set [1] concerns propionyl-CoA synthetase (Pcs).
Substrate in data set [2]: CC(C)(COP(=O)(O)OP(=O)(O)OC[C@H]1O[C@@H](n2cnc3c(N)ncnc32)[C@H](O)[C@@H]1OP(=O)(O)O)[C@@H](O)C(=O)NCCC(=O)NCCSC(=O)CCC(=O)O
Kind of data set: purified protein.

Substrate in data set [3]: C=CC(=O)SCCNC(=O)CCNC(=O)[C@H](O)C(C)(C)COP(=O)(O)OP(=O)(O)OC[C@H]1O[C@@H](n2cnc3c(N)ncnc32)[C@H](O)[C@@H]1OP(=O)(O)O
Kind of data set: purified protein. To be noted: NADPH co-substrate.

Substrate in data set [4]: NC(=O)C1=CN([C@@H]2O[C@H](COP(=O)(O)OP(=O)(O)OC[C@H]3O[C@@H](n4cnc5c(N)ncnc54)[C@H](OP(=O)(O)O)[C@@H]3O)[C@@H](O)[C@H]2O)C=CC1
Kind of data set: purified protein. To be noted: acrylyl-CoA co-substrate; varied: cofactor.

Substrate in data set [5]: CC(C)(COP(=O)(O)OP(=O)(O)OC[C@H]1O[C@@H](n2cnc3c(N)ncnc32)[C@H](O)[C@@H]1OP(=O)(O)O)[C@@H](O)C(=O)NCCC(=O)NCCSC(=O)CC(=O)O
Kind of data set: purified protein. The following applies: NADPH co-substrate; full-length Mcr assumed (McrC also made).

Substrate in data set [6]: CC(C)(COP(=O)(O)OP(=O)(O)OC[C@H]1O[C@@H](n2cnc3c(N)ncnc32)[C@H](O)[C@@H]1OP(=O)(O)O)[C@@H](O)C(=O)NCCC(=O)NCCSC(=O)CCN
Kind of data set: purified protein. To be noted: NADPH, NaHCO3, excess Ccr.

Substrate in data set [7]: O=CCC(=O)O
Kind of data set: malonic semialdehyde made by McrC. The class given is biochemical, Escherichia coli. To be noted: L-glutamate co-substrate, NH4Cl.

Substrate in data set [8]: N[C@@H](CCC(=O)O)C(=O)O
Kind of data set: malonic semialdehyde made by McrC. The class given is biochemical, Escherichia coli. The following applies: malonic semialdehyde co-substrate, NH4Cl.

Substrate in data set [9]: CC(C)(COP(=O)(O)OP(=O)(O)OC[C@H]1O[C@@H](n2cnc3c(N)ncnc32)[C@H](O)[C@@H]1OP(=O)(O)O)[C@@H](O)C(=O)NCCC(=O)NCCSC(=O)/C=C/C(=O)O
Kind of data set: purified protein.

Substrate in data set [10]: O=C(O)C[C@H](O)C(=O)O
Kind of data set: purified protein. The following applies: succinyl-CoA co-substrate.

Usually Km stands for the substrate concentration at which the rate is half of its maximum.

Where two headings read alike, the source gives them in different places.

As to `Nc1ncnc2c1ncn2[C@@H]1O[C@H](COP(=O)(O)OP(=O)(O)OP(=O)(O)O)[C@@H](O)[C@H]1O` [ATP], in data set [1] (read-out: app. Km, 3-hydroxypropionate, NADPH co-substrates), the Km was found to be 10 µM.
Consider `O=C(O)CCO` [3-hydroxypropionate], for which, in data set [1] (read-out: app. Km, ATP, NADPH co-substrates), the Km was found to be 85 µM.

B1: (2S)-methylsuccinyl-CoA dehydrogenase (PmMcd) (Pseudomonas migulae) (protein)
chain: MLPITAADDVQGLLLQLRGLLEQAISALASRCTKGRQLDAELLDLMQVPTFELAWASAELLAAERSLQAIDAGTSSVDRRLILVFAVEAITLVHSRLEAIYAELDLADGTLHAIAADQKLRALRRSVLSSTALHDSARLMVERPEQIGQVAMGDELSMIEDQFRRFAADTVAPLAEHIHREDLIIPDSLLAALRDMGVFGLSIPERYGGSAPDDQEDPLTMIVVTEALSQASLAAAGSLITRPEILSRALLSGGTESQKQHWLARLAVGDPLCAIAITEPDYGSDVAGLTLRGTPCEGGWRLNGAKTWCTFAGKAGVLMVVTRTNPDKSLGHRGLSLLLAEKPSYDGHEFDFRQPGGGSLTGRAIPTIGYRGMHSFDLSFEDFFVPDGNVIGEAQGLGKGFYHTMAGMTGGRMQTAGRASGVMRAALLAGLRYATERKVFGSPLLDYPLTGAKLTKMAARYVASRYLTYSVGRMLAQGEGRMEASLVKLFACRSAELVTRESLQIHGGMGYAEEVAVSRYFVDARVLSIFEGAEETLALKVIGRSLLEAALKAEAA
As to B1, the Km in the data set “purified protein [2]” (ferrocenium electron acceptor) turned out to be 78 µM.

B2: Ccr (Methylorubrum extorquens AM1) (protein)
chain: MAASAAPAWTGQTAEAKDLYELGEIPPLGHVPAKMYAWAIRRERHGPPEQSHQLEVLPVWEIGDDEVLVYVMAAGVNYNGVWAGLGEPISPFDVHKGEYHIAGSDASGIVWKVGAKVKRWKVGDEVIVHCNQDDGDDEECNGGDPMFSPTQRIWGYETGDGSFAQFCRVQSRQLMARPKHLTWEEAACYTLTLATAYRMLFGHAPHTVRPGQNVLIWGASGGLGVFGVQLCAASGANAIAVISDESKRDYVMSLGAKGVINRKDFDCWGQLPTVNSPEYNTWLKEARKFGKAIWDITGKGNDVDIVFEHPGEATFPVSTLVAKRGGMIVFCAGTTGFNITFDARYVWMRQKRIQGSHFAHLKQASAANQFVMDRRVDPCMSEVFPWDKIPAAHTKMWKNQHPPGNMAVLVNSTRAGLRTVEDVIEAGPLKAM
For the molecule B2, the Km was found to be 780 µM in “purified protein [3]” and 210 µM in “purified protein [4]”.

B3: Malonyl-CoA reductase (Mcr) (Chloroflexus aurantiacus J-10-fl) (protein)
chain: MSGTGRLAGKIALITGGAGNIGSELTRRFLAEGATVIISGRNRAKLTALAERMQAEAGVPAKRIDLEVMDGSDPVAVRAGIEAIVARHGQIDILVNNAGSAGAQRRLAEIPLTEAELGPGAEETLHASIANLLGMGWHLMRIAAPHMPVGSAVINVSTIFSRAEYYGRIPYVTPKAALNALSQLAARELGARGIRVNTIFPGPIESDRIRTVFQRMDQLKGRPEGDTAHHFLNTMRLCRANDQGALERRFPSVGDVADAAVFLASAESAALSGETIEVTHGMELPACSETSLLARTDLRTIDASGRTTLICAGDQIEEVMALTGMLRTCGSEVIIGFRSAAALAQFEQAVNESRRLAGADFTPPIALPLDPRDPATIDAVFDWAGENTGGIHAAVILPATSHEPAPCVIEVDDERVLNFLADEITGTIVIASRLARYWQSQRLTPGARARGPRVIFLSNGADQNGNVYGRIQSAAIGQLIRVWRHEAELDYQRASAAGDHVLPPVWANQIVRFANRSLEGLEFACAWTAQLLHSQRHINEITLNIPANISATTGARSASVGWAESLIGLHLGKVALITGGSAGIGGQIGRLLALSGARVMLAARDRHKLEQMQAMIQSELAEVGYTDVEDRVHIAPGCDVSSEAQLADLVERTLSAFGTVDYLINNAGIAGVEEMVIDMPVEGWRHTLFANLISNYSLMRKLAPLMKKQGSGYILNVSSYFGGEKDAAIPYPNRADYAVSKAGQRAMAEVFARFLGPEIQINAIAPGPVEGDRLRGTGERPGLFARRARLILENKRLNELHAALIAAARTDERSMHELVELLLPNDVAALEQNPAAPTALRELARRFRSEGDPAASSSSALLNRSIAAKLLARLHNGGYVLPADIFANLPNPPDPFFTRAQIDREARKVRDGIMGMLYLQRMPTEFDVAMATVYYLADRNVSGETFHPSGGLRYERTPTGGELFGLPSPERLAELVGSTVYLIGEHLTEHLNLLARAYLERYGARQVVMIVETETGAETMRRLLHDHVEAGRLMTIVAGDQIEAAIDQAITRYGRPGPVVCTPFRPLPTVPLVGRKDSDWSTVLSEAEFAELCEHQLTHHFRVARKIALSDGASLALVTPETTATSTTEQFALANFIKTTLHAFTATIGVESERTAQRILINQVDLTRRARAEEPRDPHERQQELERFIEAVLLVTAPLPPEADTRYAGRIHRGRAITV
In the case of B3, the Km in the data set “purified protein [5]” is 1.3 µM.

B4: β-alanyl-CoA:ammonia lyase (βCal) (Allostigmatella aurantiaca DW4/3-1) (protein)
chain: MSTKAIIRLRMSSHDAHYGGNLVDGARMLGLFGDVATELCIRHDGDEGLFRAYDSVEFLAPVYAGDFIEAEGEILSEGNTSRKMRFEARKVIRPRTDVNDSAADLLSEPVVVCRATGTCVVPKDKQRIPR
In the case of B4, the Km in the data set “purified protein [6]” worked out at 70 µM.

B5: 4-aminobutyrate-2-oxoglutarate transaminase (GabT) (Escherichia coli K-12) (protein)
chain: MNSNKELMQRRSQAIPRGVGQIHPIFADRAENCRVWDVEGREYLDFAGGIAVLNTGHLHPKVVAAVEAQLKKLSHTCFQVLAYEPYLELCEIMNQKVPGDFAKKTLLVTTGSEAVENAVKIARAATKRSGTIAFSGAYHGRTHYTLALTGKVNPYSAGMGLMPGHVYRALYPCPLHGISEDDAIASIHRIFKNDAAPEDIAAIVIEPVQGEGGFYASSPAFMQRLRALCDEHGIMLIADEVQSGAGRTGTLFAMEQMGVAPDLTTFAKSIAGGFPLAGVTGRAEVMDAVAPGGLGGTYAGNPIACVAALEVLKVFEQENLLQKANDLGQKLKDGLLAIAEKHPEIGDVRGLGAMIAIELFEDGDHNKPDAKLTAEIVARARDKGLILLSCGPYYNVLRILVPLTIEDAQIRQGLEIISQCFDEAKQ
Regarding B5, the Km was 98 µM in [7] and 7 µM in data set [8].

B6: mesaconyl-CoA hydratase (Mch) (Cereibacter sphaeroides 2.4.1) (protein)
chain: MKTNAGRFFEDYRLGETIAHAVPRTVSGGERALYHALYPARHALSSSDEFARACGLPAAPVDELMAFHLVFGKTVPDISLNAVANLGYAEGRWLKPVFPGDTLRAESTVIGLKENSNGASGVVWVRTRGLNQQGEAVLSYVRWVMVRKRDTAAPAPAPTVPELAGSVAASDLVIPEGLSFTDYDLTLAGEPHRWGDYAVGEKIDHVDGVTVEESEHMLATRLWQNTAKVHFDATNRPDGRRLIYGGHVISLARTLSFNGLANAQMIVALNAGAHANPCFAGDTVRAWSEVLDKAETADPGVGALRLRLVAMKHGTEPFVTRSEDGKYLPGVLLDLDYWALVPR
For B6, the Km in the data set “purified protein [9]” amounted to 280 µM.

B7: succinyl-CoA:L-malate CoA transferase (Smt) (Chloroflexus aurantiacus) (protein)
chain 1: MPPTGEEPSGHAESKPPASDPMSTPGTGQEQLPLSGIRVIDVGNFLAGPYAASILGEFGAEVLKIEHPLGGDPMRRFGTATARHDATLAWLSEARNRKSVTIDLRQQEGVALFLKLVAKSDILIENFRPGTMEEWGLSWPVLQATNPGLIMLRVSGYGQTGPYRRRSGFAHIAHAFSGLSYLAGFPGETPVLPGTAPLGDYIASLFGAIGILIALRHKEQTGRGQLIDVGIYEAVFRILDEIAPAYGLFGKIREREGAGSFIAVPHGHFRSKDGKWVAIACTTDKMFERLAEAMERPELASPELYGDQRKRLAARDIVNQITIEWVGSLTRDEVMRRCLEKEVPVGPLNSIADMFNDEHFLARGNFACIEAEGIGEVVVPNVIPRLSETPGRVTNLGPPLGNATYEVLRELLDISAEEIKRLRSRKII
chain 2: MDGTTTTLPLAGIRVIDAATVIAAPFCATLLGEFGADVLKVEHPIGGDALRRFGTPTARGDTLTWLSESRNKRSVTLNLQHPEGARVFKELIAHSDVLCENFRPGTLEKWGLGWDVLSKINPRLIMLRVTGYGQTGPYRDRPGFARIAHAVGGIAYLAGMPKGTPVTPGSTTLADYMTGLYGCIGVLLALRHREQTGRGQYIDAALYESVFRCSDELVPAYGMYRKVRERHGSHYNEFACPHGHFQTKDGKWVAISCATDKLFARLANAMGRPELASSSVYGDQKVRLAHASDVNEIVRDWCSSLTRAEVLERCYATATPAAPLNDIADFFGDRHVHARRNLVAIDAEDLGETLIMPNVVPKLSETPGSIRSLGPKLGEHTEEVLKEILGMCDEQINDLRSKRVI
As to B7, the results for the Km in the data set “purified protein [10]” and in “purified protein [2]” (malate co-substrate) were 910 µM and 960 µM, respectively.

Source of the values: publication PMC10266731 (Science Advances, 2023).
